Here are results for one molecule from article PMC3467263, “FXR Controls the Tumor Suppressor NDRG2 and FXR Agonists Reduce Liver Tumor Growth and Metastasis in an Orthotopic Mouse Xenograft Model” (PLoS ONE, 2012).

The target of the test is T1, human FXR^aa187–472 fused to GST (human, UniProt Q96RI1-2 187-472).
T1 construct: Detected in the TR-FRET assay by europium-labelled anti-GST; also called human FXR-LBD; hFXR; source: purified
T1 sequence (looked up): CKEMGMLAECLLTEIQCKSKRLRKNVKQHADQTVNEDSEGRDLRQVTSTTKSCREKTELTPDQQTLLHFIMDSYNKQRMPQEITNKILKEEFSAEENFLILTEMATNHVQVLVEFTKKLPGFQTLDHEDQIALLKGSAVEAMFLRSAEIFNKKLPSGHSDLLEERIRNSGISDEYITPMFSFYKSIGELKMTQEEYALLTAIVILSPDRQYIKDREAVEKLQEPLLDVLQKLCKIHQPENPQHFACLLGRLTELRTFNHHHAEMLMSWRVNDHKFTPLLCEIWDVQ
In words: FRET or BRET; homogeneous TR-FRET: biotinylated SRC-1 peptide (0.4 µM), 200 ng streptavidin-allophycocyanin, 6 ng europium-labelled anti-GST and 2.5 ng GST-FXR-LBD in 25 µL of 20 mM Tris/HCl pH 7.5, 5 mM MgCl2, 60 mM KCl, 1 mM DTT, 0.9 g/L BSA; 60 min incubation; FXR agonist (GW4064, PX20606 or PX20350) titrated; duplicates. The note with it: both partners purified. Background: BRET reads energy transfer from a luciferase to a nearby fluorophore.

B1: biotinylated SRC-1 peptide b-[residues removed]-COOH (peptide)
peptide: CPSSHSSLTERHKILHRLLQEGSPS
HELM: PEPTIDE1{[O=C1N[C@H]2[C@H](CS[C@H]2CCCCC(=O)[*:2])N1].C.P.S.S.H.S.S.L.T.E.R.H.K.I.L.H.R.L.L.Q.E.G.S.P.S}$$$$V2.0
SMILES: CC[C@H](C)[C@H](NC(=O)[C@H](CCCCN)NC(=O)[C@H](Cc1c[nH]cn1)NC(=O)[C@H](CCCNC(=N)N)NC(=O)[C@H](CCC(=O)O)NC(=O)[C@@H](NC(=O)[C@H](CC(C)C)NC(=O)[C@H](CO)NC(=O)[C@H](CO)NC(=O)[C@H](Cc1c[nH]cn1)NC(=O)[C@H](CO)NC(=O)[C@H](CO)NC(=O)[C@@H]1CCCN1C(=O)[C@H](CS)NC(=O)CCCC[C@@H]1SC[C@@H]2NC(=O)N[C@@H]21)[C@@H](C)O)C(=O)N[C@@H](CC(C)C)C(=O)N[C@@H](Cc1c[nH]cn1)C(=O)N[C@@H](CCCNC(=N)N)C(=O)N[C@@H](CC(C)C)C(=O)N[C@@H](CC(C)C)C(=O)N[C@@H](CCC(N)=O)C(=O)N[C@@H](CCC(=O)O)C(=O)NCC(=O)N[C@@H](CO)C(=O)N1CCC[C@H]1C(=O)N[C@@H](CO)C(=O)O
notes: Coupled to streptavidin-allophycocyanin through its biotin in the assay
B1: the binding result was “binds”.
